According to the nanobody polyreactivity screen of Harvey et al. (2022):

Assay: yeast display, Sf9 membrane polyspecificity reagent, FACS + sequencing; frameworks hold sequencing errors
In short: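 A nanobody's polyreactivity label depends on the gate it was sorted from. Yeast display cells were stained with 10% biotinylated, detergent-solubilized Sf9 membrane reagent for 1 hour at 4 °C, enriched on streptavidin microbeads and sorted by FACS. The low and high (top ~1%) gates were set on anti-HA fluorescence for expression and streptavidin fluorescence for reagent binding.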

Sequence | polyreactivity (PSR sort gate)
QVQLVESGGGLVQAGGTLRLSCAASGRTFLWNDMGWDRQAPGQERELVAAITGSDGTYADSVKGRFTISRDNAKNTVYLQMNSLKPEDNAVYYCAAETYWFFPWKYDYWGQGTQVTVSS | low polyreactivity
QVQLVESGGGLVQAGGTLRLSCAASGRTLHGYAMGWYRQAPGKERELVASITWSGASTYYADSVKGRFTISRDNAKNTVYLQMNSLKPEDTAVYYCAADRSRYVRRRYGYWGQGTQVTVSS | high polyreactivity
QVQLVESGGGLVQAGGTLRLSCAASGSIFAGYAMGWYRQAPGKVRELVATITSGGSTNYADSVKGRFTISRDNAKNTVYLQMNSLKPEETAVYYCAADVEDSIATSYTCGEYVYWGQGTQVTVSS | low polyreactivity
QVQLVESGGGLVQAGGTLRLSCAASGSIFAVNAMGWYRQAPGKERELVAAISKRGGSTYYADSVKGRFTISRDNAKNTVYLQMNSLKPEDTAVYYCAARILVTYHRDYYYWGLGTQVTVSS | high polyreactivity
QVQLVESGGGLVQAGGTLRLSCAASGSIFGNNLMGWYRQAPGKERELVAAISWSGGKNYADSVKGRFTISRDNAKNTVYLEMHCLIPDDSAVYYCAALSVWSYYTYYYWGQGTQVTVSS | high polyreactivity
QVQLVESGGGLVQAGGTLRLSCAASGSTFGGYAMGLYRQAPGKERELVAAITWSGDTYYADSVKGRFTISRDNAKNSVYLQMNSLKPEDTAVYYCAAYSRVGPYRYAYWGQGTQVTVSS | high polyreactivity
QVQLVESGGGLVQAGGTLRLSCAASGSTFKYYAMGWYRQAPGKEREFVASINWSGVSTYYADSVKGRFTISRDNAKNTVYLQMNSLKPEDTAVYYCAARVRGKYDYWGQGTQVTVSS | high polyreactivity
QVQLVESGGGLVQAGGTLRLSCAASGSTFTGNAMGWYRQAPGKERELVAAITIGGSRTYYADSVKGRFTISRDNAKNTVYLQMNSLKPEDTAVYYCAATSRGTDYWGQGTQVTVSS | high polyreactivity
QVQLVESGGGLVQAGGTLRLSCAASGSTFYLYAMGWYRQAPGNERELVAAISSAGGSTYYADSVKGRFTISRVNAKNTVYLQMNSLKPEDTAVYYCTRDIRRRGNYWGQGTQVTVSS | high polyreactivity
QVQLVESGGGLVQAGGTLRLSCAASGYTFGVYFMGWYRHAPGKERELVAAISGSTYYADSVKGRFTISRDNAKNTVYLQMNSLKQEDTAVYYCAAESYFFSPRTREKFDYWGQGTQVTVSS | low polyreactivity
QVQLVESGGGLVQAGGTLRLSCAATGFTFYEYAMGWYRQAPGKERELVAGIRRSGDSTYYADSVKGRFTISRDNAKNTVYLQMNILKPEDTAVYYCAKGWYRIKRNDYWGQGTQVTVSS | low polyreactivity
QVQLVESGGGLVQAGGTLRLSSAASGSIFYRNAMGWYRQAPGKERELVDSITSGGLTNYADSVKGRFTISRDNAKNTVYLHMFSLKPEETAVYYCARGRASYTKSGPTPYTGYGYWGQGTQVTVSS | low polyreactivity
QVQLVESGGGLVQAGRSHRLSCAASGFTFAPNAMGWYRQAPGKERELVARIDRAGSTYYADSVKGRFTISRDNAKNTVYLQMNSLKPEVTAVYYCAVVAVLSRPYATKFDYWGQGTQVTVSS | low polyreactivity
QVQLVESGGGLVQAGRSHRLSCAASGSIFPVYVMGWYRQAPGKERELVAAISQSSGGTYYADSVKGRFTISRDNATITVYLQMNSLKPEDTAVYYCAARITAIQGQRYYWGQGTQVTVSS | high polyreactivity
QVQLVESGGGLVQAGRSLRLICAASGLILFYNAMGWYRQPPGKERELVAVITSGGRTYYADSVKGRFTISRDNAKNTVYLQMNSLKPEDTAVYFCAATYGHPTSYGDGWRYGYWGQGTQVTVSS | low polyreactivity
QVQLVESGGGLVQAGRSLRLSCAASGFTFETYAMGWYRQAPGKERELVAAISDGGGDTYYADSVKGRFTISRDNAKNTVYLLMNSLKPEDSAVYYCAAEWDGNWSRGAGGYDYWGQGTQVTVSS | low polyreactivity
QVQLVESGGGLVQAGRSLRLSCAASGFTFRGYAMGWYRQAPGKERELVAAISVRGDSTYYADSVKGRFTISRDNAKNTVYLQMNSLKPEDTAVYYCNAALLGKQYYSNPNYDYWGQGTQVTVSS | high polyreactivity
QVQLVESGGGLVQAGRSLRLSCAASGITFKLYAMGWYRQAPGKERELVARLSLRGGNTYYADSVKVRFTISRDNAKTTVYLQMNSQNPEDTAVYYCNADLYRQYASRYHYWGQGSQVTVSS | high polyreactivity
QVQLVESGGGLVQAGRSLRLSCAASGITLYNYAMGWYRQAPGKERELVAAISLSGGRTYYADSVKGRFTISRDNAKNTVYLQMYSLKPEDTAVYYCAADWLNSDPYNYWGQGTQVTVSS | low polyreactivity
QVQLVESGGGLVQAGRSLRLSCAASGNTLRPNGMGWYRPAPGKERELVAAISSGGSTYYADSVKGRFTISRDNAKNTVYLQMNSLKPEDTAVYYCAAEYWYDYWGQGTQVTVSS | low polyreactivity
QVQLVESGGGLVQAGRSLRLSCAASGRIFISYTMGWYRPAPGKERELVAGIDSSGTSTYYADSVKGRFTISRDYAKNTVYLQMNSLIPEDTAVYYCNVVGNWKDTSTELDYWGQGTQVTVSS | low polyreactivity
QVQLVESGGGLVQAGRSLRLSCAASGRIFRYNTMGWYRQAPGKERELVARINRGGSTNYADSVKGRFTISRDNAKNTVYLQMNSLKAEDTAVYYCNARYTARHYPFSNFDYWGQGTQVTVSS | high polyreactivity

Sequence | polyreactivity (PSR sort gate)
QVQLVESGGGLVQAGRSLRLSCAASGRIFSTNAMGRYRQAPGKERELVAAITRSSSTYYAYSVKGRFTISLDNAKNTVYLQINSLKPEDTAGYYCAASRFQYKSTQFYYWGQATQVTVSS | high polyreactivity
QVQLVESGGGLVQAGRSLRLSCAASGSIFSTNAMGWYTQAQGKEREFVAAIDITNYEDSVKGRFTISRDNSKNTVDFQMNSVIPEDTAVYSCIADTYSVVREGDYWGQGTQVTVSS | low polyreactivity
QVQLVESGGGLVQAGRSLRLSCAASGSIISVYAMGLYRQAPGKERELVADITGTGDTYYADSVKGRFTISRDNAKNTVYLQMNSLIPEDTAVYYCNTVYELYYDPSVTEDYWGQGTQVTVSS | low polyreactivity
QVQLVESGGGLVQAGRSLRLSCAASGSILSINGMGWYRQAPGKERELVATIDGSEGSTFYADSVKGRFTISRDNAKNTFYLQLNSVKPEDTAVYYCAAENFWQTKEYDYWGQGKQVTVSS | low polyreactivity
QVQLVESGGGLVQAGRSLRLSCAASGSTFDGYAMGWYRQAPGKERELVAAISYSGSSTYYADSVKGRFTNSRDNAKNTVYLQMNSLKPEDTAVYYCAVDDTHPFGPDGGGDYWGQGTQVTVSS | low polyreactivity
QVQLVESGGGLVQAGRSLRLSCAASGSTFHPYAMGWYRQAPGKERELVAAINSGDNTYYADSVKGRFTISRDNAKNTVYLQMNSLKPEDTAVYYCAVRYWDESHTEYDYWGQGTQVTVSS | low polyreactivity
QVQLVESGGGLVQAGRSLRLSCAASGSTFKYNAMGWYRQAPGKERELVASISRSGGSTYYADSVKGRFTISRDNAKNTVYLQMNSLKPEDTAGYYCNVRRFVHYEYWGQGSQVTVSS | high polyreactivity
QVQLVESGGGLVQAGRSLRLSCAASGSTFSHYAMGWYRQAPGKERELFATITGTGVRTYYADSVKGRFTISRDNAKNTVYLQMNSLKPEATAVYFCAVPPSIRGAQAQPWMDYWGQGTQVTVSS | low polyreactivity
QVQLVESGGGLVQAGRSLRLSCAASRSIFARYAMAWYRQAPGKERELVAAINSTVSTNYADSVKGRFTISRENAKNTVYLQMNSLKPEDTAVSYCAVDMVRGGLDSWGQGTQVTVSS | low polyreactivity
QVQLVESGGGLVQAGRSLRLSCAASVFTFYHYAMGWYRQAPGKVRELVAAISNSGVSTYYADSVKGRFTISRDNAKITVYLQLNSLKPEDTAVYYCNAVYQSYHISGDDYWGQGTQVTVSS | high polyreactivity
QVQLVESGGGLVQAGRSLRLSCASSGRIFSSYAKGWYRQAPGKERELVAAITSGGSTDYADSVKGRFTISRDNAKNTVYLQIYRLNPEDTAVYYCAKAFLPPWTYSPYYLFYYWGQGTQVTVSS | low polyreactivity
QVQLVESGGGLVQAGRSLRLSCGASGFTFGLYAMGWYRQATGKERELVAAITSSGRRTYYADSVKGRYTISRDKAKNTVSLEMNCLKPEDTAVYYFAKQAYDQSPYNYWGQGTQVTVSS | high polyreactivity
QVQLVESGGGLVQAGRSLRLTCAASGRIFTPYAMGWYRQAPGTERELVATITLSGGSTYYADSVKGRFTISRDYAKNTVYLQMNSLKPEDTAVYYCNKDTHLHVVDYRTGYDCWGQGTQVTVSS | low polyreactivity
QVQLVESGGGLVQAGRSLRLTCAASGRTFRAYTMGWYRQAPGKERDLVAAITSSGGGTYYADSVKGRFTISRDNAKNTVYLQMNSLKPEDTAVYYCNDRKQSYPDKYRRDYWGQGTQVTVSS | low polyreactivity
QVQLVESGGGLVQAGSSLRLSCAASGRTLIYNAMGWYRQAPGKERELVASINRRGDSTYYADSVKGRFTISRDNAKNTVYLQMNSLKPEDTAVYYCAKVLYGGYPENRYFVGWGRDYWGQGTQVTVSS | high polyreactivity
QVQLVESGGGLVQAGSSLRLSSAASGSIIGVNAKGRYRQAAGKERELVAAISSTGGSTYYADSVKGRYTISRDNAKNTVFLKMNSLKPDDTAVYYCNTDYSKSIGDGYSGFDYWGQGTQLTVSS | low polyreactivity
QVQLVESGGGLVQAGSTLRLSCAASGRIFDLYTMGWYRQAPGKERELVAAIRWSDGSTYYADSVKGRFTISRDYAKNTVYLQMNSLKPEDTAVYYCAADTRTSYYNDDYDYWGQGTQVTVSS | low polyreactivity
QVQLVESGGGLVQAGVRLRLSCAASGIIFRTYAMGWYRRAPGKERELVADITWSDGSTYYADSVKGRFTISRDNAKNTVYLQMNSLKPEDTAVYYCNADVLSDDSWWSYDYWGQGTQVTVSS | high polyreactivity
QVQLVESGGGLVQAGVRLRLSCADSGSTFYLNAIGWYRQAPGKERELVAAITRVGRTYYADSVKGRFTISRDNAKNTVYLQMNSLKPEDTAVYYCNALGHYKLWGLGTQVTVSS | high polyreactivity
QVQLVESGGGLVQAGVSHRLSCAASGRTFPGNAMGWYRQAPGKEREFVAAISYSGGRTYYADSVKGRFTISRDNAKNTVYLLMNSLKPEDTAVYYCAKRIVQPSVAAYYYWGLGTQVTVSS | high polyreactivity
QVQLVESGGGLVQAGVSLRISCAASGFIFYYYAMGWYRQAPGKERELVAAISWSGGSTYYADSVKGRFTISRDNAKNTVYLQLNSLKPEDTSVYYCNARFRYARYSQRYDYWGQGTQVTVSS | high polyreactivity
